The values that follow come from paper PMC9433092, “Closely related type II-C Cas9 orthologs recognize diverse PAMs”.

Positions count from the first letter of the chain named.

Holding throughout (experiment): HEK293T cells
Common to all, as to conditions: tags: NLS and HA tags, kept

The target in data set [1] is T1, Nsp2-SmuCas9 (synthetic).
T1 chain: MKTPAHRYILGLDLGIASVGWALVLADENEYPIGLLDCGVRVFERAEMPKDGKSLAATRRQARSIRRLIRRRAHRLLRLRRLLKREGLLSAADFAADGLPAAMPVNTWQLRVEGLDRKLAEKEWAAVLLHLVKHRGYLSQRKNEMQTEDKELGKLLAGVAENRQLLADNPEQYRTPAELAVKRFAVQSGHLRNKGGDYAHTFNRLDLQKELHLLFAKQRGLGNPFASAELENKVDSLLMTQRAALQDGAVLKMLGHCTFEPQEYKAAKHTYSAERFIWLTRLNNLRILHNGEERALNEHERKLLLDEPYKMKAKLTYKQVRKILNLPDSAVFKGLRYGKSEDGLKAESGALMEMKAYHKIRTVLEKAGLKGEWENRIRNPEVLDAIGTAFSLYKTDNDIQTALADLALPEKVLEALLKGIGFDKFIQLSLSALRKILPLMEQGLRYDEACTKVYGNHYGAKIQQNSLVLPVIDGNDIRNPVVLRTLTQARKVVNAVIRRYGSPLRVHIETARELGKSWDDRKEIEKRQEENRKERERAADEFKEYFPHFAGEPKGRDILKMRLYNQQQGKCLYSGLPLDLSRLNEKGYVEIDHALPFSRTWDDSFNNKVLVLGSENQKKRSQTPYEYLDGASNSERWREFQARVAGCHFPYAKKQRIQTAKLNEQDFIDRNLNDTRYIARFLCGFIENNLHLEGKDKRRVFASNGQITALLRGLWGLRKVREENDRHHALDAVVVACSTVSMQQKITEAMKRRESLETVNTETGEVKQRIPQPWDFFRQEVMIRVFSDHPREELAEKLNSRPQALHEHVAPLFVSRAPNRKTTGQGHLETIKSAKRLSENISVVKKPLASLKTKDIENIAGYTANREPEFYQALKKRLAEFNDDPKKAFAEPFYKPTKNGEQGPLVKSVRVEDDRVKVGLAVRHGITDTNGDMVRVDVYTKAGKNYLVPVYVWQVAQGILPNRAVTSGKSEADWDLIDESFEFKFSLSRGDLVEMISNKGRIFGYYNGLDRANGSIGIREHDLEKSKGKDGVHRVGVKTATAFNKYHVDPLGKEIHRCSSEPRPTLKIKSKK

The target in data set [2] is T2, NarCas9 (Neisseria arctica, UniProt A0A0J0YQ19).
T2 sequence: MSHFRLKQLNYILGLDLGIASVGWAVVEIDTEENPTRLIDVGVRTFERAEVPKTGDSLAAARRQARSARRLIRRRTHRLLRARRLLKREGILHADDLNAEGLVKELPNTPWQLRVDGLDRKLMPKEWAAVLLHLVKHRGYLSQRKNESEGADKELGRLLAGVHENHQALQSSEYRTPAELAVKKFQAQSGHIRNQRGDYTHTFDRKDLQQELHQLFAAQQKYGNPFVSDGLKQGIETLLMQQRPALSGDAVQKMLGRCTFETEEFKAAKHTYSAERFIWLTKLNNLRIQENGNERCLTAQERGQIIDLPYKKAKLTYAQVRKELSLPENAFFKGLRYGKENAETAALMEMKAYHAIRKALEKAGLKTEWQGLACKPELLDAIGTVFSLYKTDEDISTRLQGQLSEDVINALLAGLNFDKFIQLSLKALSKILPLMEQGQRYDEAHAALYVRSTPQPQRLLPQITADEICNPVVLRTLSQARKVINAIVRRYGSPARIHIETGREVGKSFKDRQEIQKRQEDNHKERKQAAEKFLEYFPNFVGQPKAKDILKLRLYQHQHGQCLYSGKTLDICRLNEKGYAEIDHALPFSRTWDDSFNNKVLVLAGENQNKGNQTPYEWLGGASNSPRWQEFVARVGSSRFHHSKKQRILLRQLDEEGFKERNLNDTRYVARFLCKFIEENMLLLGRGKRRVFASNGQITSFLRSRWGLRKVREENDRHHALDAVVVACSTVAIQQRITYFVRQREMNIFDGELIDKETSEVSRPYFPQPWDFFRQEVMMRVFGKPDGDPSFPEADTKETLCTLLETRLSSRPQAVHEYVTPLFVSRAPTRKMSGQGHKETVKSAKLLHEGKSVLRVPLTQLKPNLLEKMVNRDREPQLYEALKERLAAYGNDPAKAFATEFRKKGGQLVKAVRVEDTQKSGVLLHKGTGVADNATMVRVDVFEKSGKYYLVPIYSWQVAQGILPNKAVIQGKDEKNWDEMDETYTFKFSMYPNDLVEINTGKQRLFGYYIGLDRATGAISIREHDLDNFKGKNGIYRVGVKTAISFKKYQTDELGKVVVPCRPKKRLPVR

The target in data set [3] is T3, Nme2-SmuCas9 (synthetic).
T3 chain: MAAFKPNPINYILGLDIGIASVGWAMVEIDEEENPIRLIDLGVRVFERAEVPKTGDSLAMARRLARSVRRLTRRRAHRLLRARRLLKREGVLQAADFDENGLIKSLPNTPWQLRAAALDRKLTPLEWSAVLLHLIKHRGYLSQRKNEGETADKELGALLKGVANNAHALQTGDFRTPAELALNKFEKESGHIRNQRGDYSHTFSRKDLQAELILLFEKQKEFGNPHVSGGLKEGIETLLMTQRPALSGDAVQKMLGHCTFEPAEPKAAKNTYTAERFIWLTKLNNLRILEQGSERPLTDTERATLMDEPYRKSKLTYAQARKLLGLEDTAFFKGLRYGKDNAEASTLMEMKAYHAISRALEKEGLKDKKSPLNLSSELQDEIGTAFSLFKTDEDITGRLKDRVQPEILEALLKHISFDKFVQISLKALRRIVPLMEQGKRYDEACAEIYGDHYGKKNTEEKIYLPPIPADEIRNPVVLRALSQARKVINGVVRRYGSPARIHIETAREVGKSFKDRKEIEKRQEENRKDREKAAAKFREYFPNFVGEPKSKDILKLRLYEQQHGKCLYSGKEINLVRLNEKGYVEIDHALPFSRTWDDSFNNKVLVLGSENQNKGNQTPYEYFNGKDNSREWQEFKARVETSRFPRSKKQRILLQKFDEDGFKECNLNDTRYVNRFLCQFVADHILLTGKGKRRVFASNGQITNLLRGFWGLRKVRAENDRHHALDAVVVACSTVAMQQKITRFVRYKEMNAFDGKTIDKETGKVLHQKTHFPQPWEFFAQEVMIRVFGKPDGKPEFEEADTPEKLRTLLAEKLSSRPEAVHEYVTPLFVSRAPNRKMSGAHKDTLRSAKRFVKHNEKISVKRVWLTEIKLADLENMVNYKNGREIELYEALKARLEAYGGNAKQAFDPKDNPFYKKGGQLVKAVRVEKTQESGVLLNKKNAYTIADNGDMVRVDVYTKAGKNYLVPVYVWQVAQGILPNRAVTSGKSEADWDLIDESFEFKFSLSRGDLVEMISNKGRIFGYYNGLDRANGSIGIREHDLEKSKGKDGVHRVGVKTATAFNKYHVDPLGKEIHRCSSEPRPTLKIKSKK

B1: EMX1 TS10 (mixed)
RNA: GACUGACUGGAUGUGCACAGCAGGUUGUAGCUCCCUUUCUCAUUUCGGAAACGAAAUGAGAACCGUUGCUACAAUAAGGCCGUCUGAAAAGAUGUGCCGCAACGCUCUGCCCCUUAAAGCUUCUGCUUUAAGGGGCAUCGUUUAUUUUUUU
DNA 1: ACTGACTGGATGTGCACAGCAGTGACCG
DNA 2: CGGTCACTGCTGTGCACATCCAGTCAGT
For B1, in data set [1], the indel frequency was determined as 5.48 % indels.

B2: AAVS1 TS4 (mixed)
RNA: GCUGUCCCCUCCACCCCACAGUGGUUGUAGCUCCCUUUCUCAUUUCGGAAACGAAAUGAGAACCGUUGCUACAAUAAGGCCGUCUGAAAAGAUGUGCCGCAACGCUCUGCCCCUUAAAGCUUCUGCUUUAAGGGGCAUCGUUUAUUUUUUU
DNA 1: CTGTCCCCTCCACCCCACAGTGGGGCCACT
DNA 2: AGTGGCCCCACTGTGGGGTGGAGGGGACAG
Consider B2, for which the indel frequency in data set [1] is 6.53 % indels; in data set [2], 5.75 % indels.

B3: GRIN2B TS17 (mixed)
RNA: GUGCAGUUAGGGAAUAAGCCCCAGUUGUAGCUCCCUUUCUCAUUUCGGAAACGAAAUGAGAACCGUUGCUACAAUAAGGCCGUCUGAAAAGAUGUGCCGCAACGCUCUGCCCCUUAAAGCUUCUGCUUUAAGGGGCAUCGUUUAUUUUUUU
DNA 1: TGCAGTTAGGGAATAAGCCCCAGTGTCAAG
DNA 2: CTTGACACTGGGGCTTATTCCCTAACTGCA
As to B3, the indel frequency in data set [1] is 23.2 % indels; in data set [2], 7.65 % indels.

B4: AAVS1 TS5 (mixed)
RNA: GGUCUGAGGGUGGAGGGACUGGGUUGUAGCUCCCUUUCUCAUUUCGGAAACGAAAUGAGAACCGUUGCUACAAUAAGGCCGUCUGAAAAGAUGUGCCGCAACGCUCUGCCCCUUAAAGCUUCUGCUUUAAGGGGCAUCGUUUAUUUUUUU
DNA 1: GGTCTGAGGGTGGAGGGACTGGGGGCCTGG
DNA 2: CCAGGCCCCCAGTCCCTCCACCCTCAGACC
On to B4, for which the values for the indel frequency in data set [3], in data set [1] and in data set [2] were 14.5 % indels, 17.8 % indels and 13.2 % indels, respectively.

B5: AAVS1 TS3 (mixed)
RNA: GUCUGACCUGCAUUCUCUCCCCUGUUGUAGCUCCCUUUCUCAUUUCGGAAACGAAAUGAGAACCGUUGCUACAAUAAGGCCGUCUGAAAAGAUGUGCCGCAACGCUCUGCCCCUUAAAGCUUCUGCUUUAAGGGGCAUCGUUUAUUUUUUU
DNA 1: TCTGACCTGCATTCTCTCCCCTGGGCCTGT
DNA 2: ACAGGCCCAGGGGAGAGAATGCAGGTCAGA
Turning to B5, the indel frequency in data set [1] came out at 17.9 % indels; in data set [2], 9.89 % indels.

B6: EMX1 TS14 (mixed)
RNA: GCCAAGACGGUGACCAGACUCAAGUUGUAGCUCCCUUUCUCAUUUCGGAAACGAAAUGAGAACCGUUGCUACAAUAAGGCCGUCUGAAAAGAUGUGCCGCAACGCUCUGCCCCUUAAAGCUUCUGCUUUAAGGGGCAUCGUUUAUUUUUUU
DNA 1: CCAAGACGGTGACCAGACTCAAGTTACTGA
DNA 2: TCAGTAACTTGAGTCTGGTCACCGTCTTGG
Take B6: in data set [1], the indel frequency worked out at 16.5 % indels.

B7: EMX1 TS9 (mixed)
RNA: GUAAGACGAAUUGUAGAAAGGAGGUUGUAGCUCCCUUUCUCAUUUCGGAAACGAAAUGAGAACCGUUGCUACAAUAAGGCCGUCUGAAAAGAUGUGCCGCAACGCUCUGCCCCUUAAAGCUUCUGCUUUAAGGGGCAUCGUUUAUUUUUUU
DNA 1: TAAGACGAATTGTAGAAAGGAGAGATCAC
DNA 2: GTGATCTCTCCTTTCTACAATTCGTCTTA
In turn, B7 had an indel frequency in data set [1] of 16 % indels.

B8: EMX1 TS13 (mixed)
RNA: GGUGGUAGAGGGAGCAGUAUGAGUUGUAGCUCCCUUUCUCAUUUCGGAAACGAAAUGAGAACCGUUGCUACAAUAAGGCCGUCUGAAAAGAUGUGCCGCAACGCUCUGCCCCUUAAAGCUUCUGCUUUAAGGGGCAUCGUUUAUUUUUUU
DNA 1: GGTGGTAGAGGGAGCAGTATGAGAGTCTGG
DNA 2: CCAGACTCTCATACTGCTCCCTCTACCACC
In the case of B8, the results for the indel frequency in data set [3], in data set [1] and in data set [2] were 12.2 % indels, 35.6 % indels and 18.4 % indels, respectively.

B9: AAVS1 TS6 (mixed)
RNA: GUGAACUGGAGUGUGACAGCCUGGUUGUAGCUCCCUUUCUCAUUUCGGAAACGAAAUGAGAACCGUUGCUACAAUAAGGCCGUCUGAAAAGAUGUGCCGCAACGCUCUGCCCCUUAAAGCUUCUGCUUUAAGGGGCAUCGUUUAUUUUUUU
DNA 1: TGAACTGGAGTGTGACAGCCTGGGGCCCAG
DNA 2: CTGGGCCCCAGGCTGTCACACTCCAGTTCA
Consider B9, for which the indel frequency in data set [1] worked out at 6.16 % indels.

B10: AAVS1 TS1 (mixed)
RNA: GCAGCAUAGGGUGGCAAAGCCCAGUUGUAGCUCCCUUUCUCAUUUCGGAAACGAAAUGAGAACCGUUGCUACAAUAAGGCCGUCUGAAAAGAUGUGCCGCAACGCUCUGCCCCUUAAAGCUUCUGCUUUAAGGGGCAUCGUUUAUUUUUUU
DNA 1: CAGCATAGGGTGGCAAAGCCCAGGGCCAGG
DNA 2: CCTGGCCCTGGGCTTTGCCACCCTATGCTG
On to B10, for which the results for the indel frequency in data set [1] and in data set [2] were 16.7 % indels and 10.9 % indels, respectively.

B11: AAVS1 TS2 (mixed)
RNA: B10 RNA with A6G, U7C, G9A, G10A, G14A, A18U, C20G
DNA 1: CAGCGCAAAGTGACAATGGCCAGGGCCAGG
DNA 2: CCTGGCCCTGGCCATTGTCACTTTGCGCTG
For the molecule B11, the indel frequency in data set [1] worked out at 12.4 % indels.
